From PMC8325870, “SUMOylated non-canonical polycomb PRC1.6 complex as a prerequisite for recruitment of transcription factor RBPJ”

Target: RBPJ wt (UniProt P31266 1-526)
Test: EMSA; anti-Flag supershift; 10 mM Tris-HCl pH 7.5, 100 mM NaCl, 0.1 mM EDTA, 0.5 mM DTT, 4% glycerol, 10 ng poly(dI-dC), ~0.5 ng 32P-oligo, 2 or 4 ul reticulocyte lysate; temperature not stated
Details: protein: ivt; tags: Flag; label: 32P; 5' overhang 4 nt at both ends (CCTG on F, CTCG on R)

Chain of RBPJ wt (P31266 whole entry): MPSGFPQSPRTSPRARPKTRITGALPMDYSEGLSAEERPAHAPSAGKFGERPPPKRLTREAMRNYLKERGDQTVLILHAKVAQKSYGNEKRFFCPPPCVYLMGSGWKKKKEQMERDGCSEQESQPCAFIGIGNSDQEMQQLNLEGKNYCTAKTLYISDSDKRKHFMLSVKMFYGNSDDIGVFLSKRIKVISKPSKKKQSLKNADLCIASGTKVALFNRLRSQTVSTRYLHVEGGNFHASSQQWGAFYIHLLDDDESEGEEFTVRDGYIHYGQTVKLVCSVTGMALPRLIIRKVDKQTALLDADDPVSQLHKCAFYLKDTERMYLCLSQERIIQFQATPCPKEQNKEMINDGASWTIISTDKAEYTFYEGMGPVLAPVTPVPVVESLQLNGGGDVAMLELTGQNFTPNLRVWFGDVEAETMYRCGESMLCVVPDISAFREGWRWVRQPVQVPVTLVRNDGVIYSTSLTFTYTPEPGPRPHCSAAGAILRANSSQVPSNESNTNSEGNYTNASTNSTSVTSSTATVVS

B1: FO-233F/FO-233R (EBV TP-1 promoter, two RBPJ sites) (dsDNA)
DNA 1: CCTGGAACTATTTTCCCACGGTGCCCTTCCGCCCATTTTCCCACGAGTCG
DNA 2: CTCGCGACTCGTGGGAAAATGGGCGGAAGGGCACCGTGGGAAAATAGTTC
binding result: binds
